Laboratory results as given in patent publication US20240141027A1 (BIOARCTIC, published 2024).

Columns and labels:
[1] = biological target: T1, recombinant Aβ1-42; assay: indirect ELISA, plates coated with recombinant Aβ1-42
T1 construct: Coated at 0.5 µg/ml on ELISA plates; also called Amyloid Beta (Aβ1-42)

[2] = biological target: T2, recombinant murine transferrin receptor 1 (mTfR1), extracellular domain fused to a His-tag (murine, UniProt Q62351 89-763); assay: BLI (Octet), mTfR1 captured on holo-transferrin sensors, analyte 50 nM
T2 construct: Position of the His-tag (N or C) unknown; also called recombinant mTfR1; murine TfR1; not shown: His-tag
T2 sequence (Q62351 89-763): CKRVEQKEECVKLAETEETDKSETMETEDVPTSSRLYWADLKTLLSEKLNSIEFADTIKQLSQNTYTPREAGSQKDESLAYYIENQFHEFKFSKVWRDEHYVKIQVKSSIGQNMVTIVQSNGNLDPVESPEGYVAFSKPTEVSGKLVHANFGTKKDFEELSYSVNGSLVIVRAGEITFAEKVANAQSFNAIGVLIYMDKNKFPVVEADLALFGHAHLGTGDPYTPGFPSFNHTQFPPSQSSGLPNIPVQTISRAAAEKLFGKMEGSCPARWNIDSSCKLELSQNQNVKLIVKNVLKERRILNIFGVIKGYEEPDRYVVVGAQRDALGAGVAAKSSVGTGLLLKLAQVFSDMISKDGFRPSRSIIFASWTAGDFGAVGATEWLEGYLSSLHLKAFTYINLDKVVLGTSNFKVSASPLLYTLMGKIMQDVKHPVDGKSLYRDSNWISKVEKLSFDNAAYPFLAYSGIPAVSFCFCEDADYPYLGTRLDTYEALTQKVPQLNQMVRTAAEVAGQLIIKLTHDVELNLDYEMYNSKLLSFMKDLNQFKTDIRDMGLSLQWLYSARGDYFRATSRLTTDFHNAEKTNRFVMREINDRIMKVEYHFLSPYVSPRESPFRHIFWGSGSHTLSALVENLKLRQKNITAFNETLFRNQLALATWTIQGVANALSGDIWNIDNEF

T1 sequence (peptide, as listed by the source): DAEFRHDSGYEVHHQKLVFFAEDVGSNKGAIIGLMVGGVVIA

Row | binding result [1] | binding result [2] | Binder
1 | binds | binds | mAb158-scLc-8D3-Ig.9 (bispecific antibody, human IgG1, kappa, Format [LC-L1-scBM-L2-LC]) heavy: not shown DIVMTQAPLSLPVSLGDQASISCRSSQSIVHSNGNTYLEWYLQKPGQSPKLLIYKVSNRFSGVPDRFSGSGSGTDFTLKISRVEAEDLGIYYCFQGSHVPPTFGGGTKLEIKRADAAPTVSIFPPSSEQLTSGGASVVCFLNNFYPKDINVKWKIDGSERQNGVLNSWTDQDSKDSTYSMSSTLTLTKDEYERHNSYTCEATHKTSTSPIVKSFNRNECGGGGSGGGGSGGGGSGGGGSEVQLVESGGGLVQPGNSLTLSCVASGFTFSNYGMHWIRQAPKKGLEWIAMIYYDSSKMNYADTVKGRFTISRDNSKNTLYLEMNSLRSEDTAMYYCAVPTSHYVVDVWGQGVSVTVSSGGGGSGGGGSGGGGSDIQMTQSPASLSASLEEIVTITCQASQDIGNWLAWYQQKPGKSPQLLIYGATSLADGVPSRFSGSRSGTQFSLKISRVQVEDIGIYYCLQAYNTPWTFGGGTKLELKRGGGGSGGGGSGGGGSGGGGSDIVMTQAPLSLPVSLGDQASISCRSSQSIVHSNGNTYLEWYLQKPGQSPKLLIYKVSNRFSGVPDRFSGSGSGTDFTLKISRVEAEDLGIYYCFQGSHVPPTFGGGTKLEIKRADAAPTVSIFPPSSEQLTSGGASVVCFLNNFYPKDINVKWKIDGSERQNGVLNSWTDQDSKDSTYSMSSTLTLTKDEYERHNSYTCEATHKTSTSPIVKSFNRNEC
2 | binds | binds | mAb158-scLc-8D3-Ig.8 (bispecific antibody, human IgG1, kappa, Format [LC-L1-scBM-L2-LC]) heavy: not shown DIVMTQAPLSLPVSLGDQASISCRSSQSIVHSNGNTYLEWYLQKPGQSPKLLIYKVSNRFSGVPDRFSGSGSGTDFTLKISRVEAEDLGIYYCFQGSHVPPTFGGGTKLEIKRADAAPTVSIFPPSSEQLTSGGASVVCFLNNFYPKDINVKWKIDGSERQNGVLNSWTDQDSKDSTYSMSSTLTLTKDEYERHNSYTCEATHKTSTSPIVKSFNRNECGGGGSGGGGSGGGGSEVQLVESGGGLVQPGNSLTLSCVASGFTFSNYGMHWIRQAPKKGLEWIAMIYYDSSKMNYADTVKGRFTISRDNSKNTLYLEMNSLRSEDTAMYYCAVPTSHYVVDVWGQGVSVTVSSGGGGSGGGGSGGGGSDIQMTQSPASLSASLEEIVTITCQASQDIGNWLAWYQQKPGKSPQLLIYGATSLADGVPSRFSGSRSGTQFSLKISRVQVEDIGIYYCLQAYNTPWTFGGGTKLELKRGGGGSGGGGSGGGGSDIVMTQAPLSLPVSLGDQASISCRSSQSIVHSNGNTYLEWYLQKPGQSPKLLIYKVSNRFSGVPDRFSGSGSGTDFTLKISRVEAEDLGIYYCFQGSHVPPTFGGGTKLEIKRADAAPTVSIFPPSSEQLTSGGASVVCFLNNFYPKDINVKWKIDGSERQNGVLNSWTDQDSKDSTYSMSSTLTLTKDEYERHNSYTCEATHKTSTSPIVKSFNRNEC
3 | binds | binds | mAb158-scLc-8D3-Ig.10 (bispecific antibody, human IgG1, kappa, Format [LC-L1-scBM-L2-LC]) heavy: not shown DIVMTQAPLSLPVSLGDQASISCRSSQSIVHSNGNTYLEWYLQKPGQSPKLLIYKVSNRFSGVPDRFSGSGSGTDFTLKISRVEAEDLGIYYCFQGSHVPPTFGGGTKLEIKRADAAPTVSIFPPSSEQLTSGGASVVCFLNNFYPKDINVKWKIDGSERQNGVLNSWTDQDSKDSTYSMSSTLTLTKDEYERHNSYTCEATHKTSTSPIVKSFNRNECGGGGSGGGGSGGGGSGGGGSGGGGSEVQLVESGGGLVQPGNSLTLSCVASGFTFSNYGMHWIRQAPKKGLEWIAMIYYDSSKMNYADTVKGRFTISRDNSKNTLYLEMNSLRSEDTAMYYCAVPTSHYVVDVWGQGVSVTVSSGGGGSGGGGSGGGGSDIQMTQSPASLSASLEEIVTITCQASQDIGNWLAWYQQKPGKSPQLLIYGATSLADGVPSRFSGSRSGTQFSLKISRVQVEDIGIYYCLQAYNTPWTFGGGTKLELKRGGGGSGGGGSDIVMTQAPLSLPVSLGDQASISCRSSQSIVHSNGNTYLEWYLQKPGQSPKLLIYKVSNRFSGVPDRFSGSGSGTDFTLKISRVEAEDLGIYYCFQGSHVPPTFGGGTKLEIKRADAAPTVSIFPPSSEQLTSGGASVVCFLNNFYPKDINVKWKIDGSERQNGVLNSWTDQDSKDSTYSMSSTLTLTKDEYERHNSYTCEATHKTSTSPIVKSFNRNEC
4 | binds | binds | mAb158-scLc-8D3-Ig.12 (bispecific antibody, human IgG1, kappa, Format [LC-L1-scBM-L2-LC]; also called mAb158-scLc-Ig.12) heavy: not shown DIVMTQAPLSLPVSLGDQASISCRSSQSIVHSNGNTYLEWYLQKPGQSPKLLIYKVSNRFSGVPDRFSGSGSGTDFTLKISRVEAEDLGIYYCFQGSHVPPTFGGGTKLEIKRADAAPTVSIFPPSSEQLTSGGASVVCFLNNFYPKDINVKWKIDGSERQNGVLNSWTDQDSKDSTYSMSSTLTLTKDEYERHNSYTCEATHKTSTSPIVKSFNRNECGGGGSGGGGSGGGGSGGGGSGGGGSEVQLVESGGGLVQPGNSLTLSCVASGFTFSNYGMHWIRQAPKKGLEWIAMIYYDSSKMNYADTVKGRFTISRDNSKNTLYLEMNSLRSEDTAMYYCAVPTSHYVVDVWGQGVSVTVSSGGGGSGGGGSGGGGSDIQMTQSPASLSASLEEIVTITCQASQDIGNWLAWYQQKPGKSPQLLIYGATSLADGVPSRFSGSRSGTQFSLKISRVQVEDIGIYYCLQAYNTPWTFGGGTKLELKRGGGGSGGGGSGGGGSGGGGSDIVMTQAPLSLPVSLGDQASISCRSSQSIVHSNGNTYLEWYLQKPGQSPKLLIYKVSNRFSGVPDRFSGSGSGTDFTLKISRVEAEDLGIYYCFQGSHVPPTFGGGTKLEIKRADAAPTVSIFPPSSEQLTSGGASVVCFLNNFYPKDINVKWKIDGSERQNGVLNSWTDQDSKDSTYSMSSTLTLTKDEYERHNSYTCEATHKTSTSPIVKSFNRNEC

Second part, the binder before the results:

Row | Binder | binding result [1] | binding result [2]
5 | mAb158-scLc-8D3-Ig.14 (bispecific antibody, human IgG1, kappa, Format [LC-L1-scBM-L2-LC]; also called mAb158-scLc-Ig.14) heavy: not shown DIVMTQAPLSLPVSLGDQASISCRSSQSIVHSNGNTYLEWYLQKPGQSPKLLIYKVSNRFSGVPDRFSGSGSGTDFTLKISRVEAEDLGIYYCFQGSHVPPTFGGGTKLEIKRADAAPTVSIFPPSSEQLTSGGASVVCFLNNFYPKDINVKWKIDGSERQNGVLNSWTDQDSKDSTYSMSSTLTLTKDEYERHNSYTCEATHKTSTSPIVKSFNRNECGGGGSGGGGSGGGGSGGGGSGGGGSDIQMTQSPASLSASLEEIVTITCQASQDIGNWLAWYQQKPGKSPQLLIYGATSLADGVPSRFSGSRSGTQFSLKISRVQVEDIGIYYCLQAYNTPWTFGGGTKLELKRGGGGSGGGGSGGGGSEVQLVESGGGLVQPGNSLTLSCVASGFTFSNYGMHWIRQAPKKGLEWIAMIYYDSSKMNYADTVKGRFTISRDNSKNTLYLEMNSLRSEDTAMYYCAVPTSHYVVDVWGQGVSVTVSSGGGGSGGGGSGGGGSDIVMTQAPLSLPVSLGDQASISCRSSQSIVHSNGNTYLEWYLQKPGQSPKLLIYKVSNRFSGVPDRFSGSGSGTDFTLKISRVEAEDLGIYYCFQGSHVPPTFGGGTKLEIKRADAAPTVSIFPPSSEQLTSGGASVVCFLNNFYPKDINVKWKIDGSERQNGVLNSWTDQDSKDSTYSMSSTLTLTKDEYERHNSYTCEATHKTSTSPIVKSFNRNEC | binds | binds
6 | mAb158-scLc-15G11-1-Ig.1 (bispecific antibody, human IgG1, kappa, Format [LC-L1-scBM-L2-LC]) heavy: not shown DIVMTQAPLSLPVSLGDQASISCRSSQSIVHSNGNTYLEWYLQKPGQSPKLLIYKVSNRFSGVPDRFSGSGSGTDFTLKISRVEAEDLGIYYCFQGSHVPPTFGGGTKLEIKRTVAAPSVFIFPPSDEQLKSGTASVVCLLNNFYPREAKVQWKVDNALQSGNSQESVTEQDSKDSTYSLSSTLTLSKADYEKHKVYACEVTHQGLSSPVTKSFNRGECGGGGSGGGGSGGGGSEVQLVQSGAEVKKPGASVKVSCKASGYTFTSYWMHWVRQAPGQRLEWIGEINPTNGRTNYIEKFKSRATLTVDKSASTAYMELSSLRSEDTAVYYCARGTRAYHYWGQGTMVTVSSGGGGSGGGGSGGGGSDIQMTQSPSSLSASVGDRVTITCRASDNLYSNLAWYQQKPGKSPKLLVYDATNLADGVPSRFSGSGSGTDYTLTISSLQPEDFATYYCQHFWGTPLTFGQGTKVEIKGGGGSGGGGSGGGGSDIVMTQAPLSLPVSLGDQASISCRSSQSIVHSNGNTYLEWYLQKPGQSPKLLIYKVSNRFSGVPDRFSGSGSGTDFTLKISRVEAEDLGIYYCFQGSHVPPTFGGGTKLEIKRTVAAPSVFIFPPSDEQLKSGTASVVCLLNNFYPREAKVQWKVDNALQSGNSQESVTEQDSKDSTYSLSSTLTLSKADYEKHKVYACEVTHQGLSSPVTKSFNRGEC | binds | 
7 | mAb158-scLc-8D3-Ig.7 (bispecific antibody, human IgG1, kappa, Format [LC-L1-scBM-L2-LC]) heavy: not shown DIVMTQAPLSLPVSLGDQASISCRSSQSIVHSNGNTYLEWYLQKPGQSPKLLIYKVSNRFSGVPDRFSGSGSGTDFTLKISRVEAEDLGIYYCFQGSHVPPTFGGGTKLEIKRADAAPTVSIFPPSSEQLTSGGASVVCFLNNFYPKDINVKWKIDGSERQNGVLNSWTDQDSKDSTYSMSSTLTLTKDEYERHNSYTCEATHKTSTSPIVKSFNRNECGGGGSGGGGSEVQLVESGGGLVQPGNSLTLSCVASGFTFSNYGMHWIRQAPKKGLEWIAMIYYDSSKMNYADTVKGRFTISRDNSKNTLYLEMNSLRSEDTAMYYCAVPTSHYVVDVWGQGVSVTVSSGGGGSGGGGSGGGGSDIQMTQSPASLSASLEEIVTITCQASQDIGNWLAWYQQKPGKSPQLLIYGATSLADGVPSRFSGSRSGTQFSLKISRVQVEDIGIYYCLQAYNTPWTFGGGTKLELKRGGGGSGGGGSDIVMTQAPLSLPVSLGDQASISCRSSQSIVHSNGNTYLEWYLQKPGQSPKLLIYKVSNRFSGVPDRFSGSGSGTDFTLKISRVEAEDLGIYYCFQGSHVPPTFGGGTKLEIKRADAAPTVSIFPPSSEQLTSGGASVVCFLNNFYPKDINVKWKIDGSERQNGVLNSWTDQDSKDSTYSMSSTLTLTKDEYERHNSYTCEATHKTSTSPIVKSFNRNEC | binds | binds
8 | mAb158-scLc-8D3-Ig.11 (bispecific antibody, human IgG1, kappa, Format [LC-L1-scBM-L2-LC]) heavy: not shown DIVMTQAPLSLPVSLGDQASISCRSSQSIVHSNGNTYLEWYLQKPGQSPKLLIYKVSNRFSGVPDRFSGSGSGTDFTLKISRVEAEDLGIYYCFQGSHVPPTFGGGTKLEIKRADAAPTVSIFPPSSEQLTSGGASVVCFLNNFYPKDINVKWKIDGSERQNGVLNSWTDQDSKDSTYSMSSTLTLTKDEYERHNSYTCEATHKTSTSPIVKSFNRNECGGGGSGGGGSGGGGSGGGGSGGGGSEVQLVESGGGLVQPGNSLTLSCVASGFTFSNYGMHWIRQAPKKGLEWIAMIYYDSSKMNYADTVKGRFTISRDNSKNTLYLEMNSLRSEDTAMYYCAVPTSHYVVDVWGQGVSVTVSSGGGGSGGGGSGGGGSDIQMTQSPASLSASLEEIVTITCQASQDIGNWLAWYQQKPGKSPQLLIYGATSLADGVPSRFSGSRSGTQFSLKISRVQVEDIGIYYCLQAYNTPWTFGGGTKLELKRGGGGSGGGGSGGGGSDIVMTQAPLSLPVSLGDQASISCRSSQSIVHSNGNTYLEWYLQKPGQSPKLLIYKVSNRFSGVPDRFSGSGSGTDFTLKISRVEAEDLGIYYCFQGSHVPPTFGGGTKLEIKRADAAPTVSIFPPSSEQLTSGGASVVCFLNNFYPKDINVKWKIDGSERQNGVLNSWTDQDSKDSTYSMSSTLTLTKDEYERHNSYTCEATHKTSTSPIVKSFNRNEC | binds | binds
